Reference: patent US10640547B2, “Immunotherapy against melanoma and other cancers” (IMMATICS BIOTECHNOLOGIES GMBH, priority 2016, dated 2020)

Target: HLA-A*02:01 (Homo sapiens, UniProt P04439, D140Y/D185E/D98H/E176V/E277Q/G131W/G231S/I119V/I121R/I166T/I218V/L300P/L318F/N151K/N90K/P208A/P217A/Q86G/Q94H/R138H/R169H/T345S)
Assay: MHC binding assay (UV-ligand exchange, β2m ELISA)
Details: MHC class I binding score; binding to HLA-A*02:01 ranged by peptide exchange yield (UV-ligand exchange, β2m ELISA)
Text: Candidate peptides for T cell based therapies according to the present invention were further tested for their MHC binding capacity (affinity). The individual peptide-MHC complexes were produced by UV-ligand exchange, where a UV-sensitive peptide is cleaved upon UV-irradiation, and exchanged with the peptide of interest as analyzed. Only peptide candidates that can effectively bind and stabilize the peptide-receptive MHC molecules prevent dissociation of the MHC complexes. To determine the yield of the exchange reaction, an ELISA was performed based on the detection of the light chain (β2m) of stabilized MHC complexes. The assay was performed as generally described in Rodenko et al. (Rodenko et al., 2006).
96 well MAXISorp plates (NUNC) were coated over night with 2 ug/ml streptavidin in PBS at room temperature, washed 4× and blocked for 1 h at 37° C. in 2% BSA containing blocking buffer. Refolded HLA-A*02:01/MLA-001 monomers served as standards, covering the range of 15-500 ng/ml. Peptide-MHC monomers of the UV-exchange reaction were diluted 100 fold in blocking buffer. Samples were incubated for 1 h at 37° C., washed four times, incubated with 2 ug/ml HRP conjugated anti-β2m for 1 h at 37° C., washed again and detected with TMB solution that is stopped with […]. Absorption was measured at 450 nm. Candidate peptides that show a high exchange yield (preferably higher than 50%, most preferred higher than 75%) are generally preferred for a generation and production of antibodies or fragments thereof, and/or T cell receptors or fragments thereof, as they show sufficient avidity to the MHC molecules and prevent dissociation of the MHC complexes.

Substance	Peptide exchange
1 (FLDVKELML; listed as Homo sapiens) [compound 1]	++++ (>75% = ++++)
2 (VLLGENVEL; listed as Homo sapiens) [compound 2]	+++ (>50 = +++)
5 (ILDEGHILQL; listed as Homo sapiens) [compound 5]	++++ (>75% = ++++)
6 (SIPDTIASV; listed as Homo sapiens) [compound 6]	+++ (>50 = +++)
7 (NLQEKVPEL; listed as Homo sapiens) [compound 7]	+++ (>50 = +++)
19 (VLAVLGAVVAV; listed as Homo sapiens) [compound 19]	+++ (>50 = +++)
22 (KLLELQELVL; listed as Homo sapiens) [compound 22]	++++ (>75% = ++++)
23 (FLGDPPPGL; listed as Homo sapiens) [compound 23]	+++ (>50 = +++)
24 (SLVAILHLL; listed as Homo sapiens) [compound 24]	+++ (>50 = +++)
25 (FIDPEQIQV; listed as Homo sapiens) [compound 25]	+++ (>50 = +++)
26 (KIEDLIKYL; listed as Homo sapiens) [compound 26]	+++ (>50 = +++)
27 (TLWYVPLSL; listed as Homo sapiens) [compound 27]	++++ (>75% = ++++)
28 (IVDNTTMQL; listed as Homo sapiens) [compound 28]	+++ (>50 = +++)
29 (ILDDVAMVL; listed as Homo sapiens) [compound 29]	+++ (>50 = +++)
30 (VLFPMDLAL; listed as Homo sapiens) [compound 30]	+++ (>50 = +++)
32 (GLDIITNKV; listed as Homo sapiens) [compound 32]	+++ (>50 = +++)
35 (ALFAAGANV; listed as Homo sapiens) [compound 35]	+++ (>50 = +++)
36 (SVNGFISTL; listed as Homo sapiens) [compound 36]	++ (>20% = ++)
37 (TLKEYLESL; listed as Homo sapiens) [compound 37]	+++ (>50 = +++)
38 (KLGFGTGVNVYL; listed as Homo sapiens) [compound 38]	++++ (>75% = ++++)
39 (ALPPPPASI; listed as Homo sapiens) [compound 39]	+++ (>50 = +++)
40 (LLSNTVSTL; listed as Homo sapiens) [compound 40]	+++ (>50 = +++)
41 (LLDDPTNAHFI; listed as Homo sapiens) [compound 41]	+++ (>50 = +++)
42 (VLKADVVLL; listed as Homo sapiens) [compound 42]	++ (>20% = ++)
43 (LLPDPLYSL; listed as Homo sapiens) [compound 43]	++ (>20% = ++)

Substance	Peptide exchange
44 (FLYTYIAKV; listed as Homo sapiens) [compound 44]	+++ (>50 = +++)
45 (FVYGEPREL; listed as Homo sapiens) [compound 45]	+++ (>50 = +++)
46 (VMSSTLYTV; listed as Homo sapiens) [compound 46]	++++ (>75% = ++++)
47 (ALDSDPVGL; listed as Homo sapiens) [compound 47]	+++ (>50 = +++)
48 (HLIGWTAFL; listed as Homo sapiens) [compound 48]	++++ (>75% = ++++)
49 (ALLSQDFEL; listed as Homo sapiens) [compound 49]	++++ (>75% = ++++)
50 (HLDQIFQNL; listed as Homo sapiens) [compound 50]	++ (>20% = ++)
51 (LIDKIIEYL; listed as Homo sapiens) [compound 51]	++ (>20% = ++)
52 (NLDYAILKL; listed as Homo sapiens) [compound 52]	+ (>10% = +)
53 (ILDEEKFNV; listed as Homo sapiens) [compound 53]	+++ (>50 = +++)
54 (LLDSGAFHL; listed as Homo sapiens) [compound 54]	+++ (>50 = +++)
55 (NLDKLYHGL; listed as Homo sapiens) [compound 55]	+ (>10% = +)
56 (ILDELVKSL; listed as Homo sapiens) [compound 56]	+++ (>50 = +++)
57 (GILSFLPVL; listed as Homo sapiens) [compound 57]	+++ (>50 = +++)
58 (ILGDWSIQV; listed as Homo sapiens) [compound 58]	++++ (>75% = ++++)
59 (IIDDVMKEL; listed as Homo sapiens) [compound 59]	++ (>20% = ++)
60 (ILPEAQDYFL; listed as Homo sapiens) [compound 60]	++++ (>75% = ++++)
61 (KLSVHVTAL; listed as Homo sapiens) [compound 61]	++++ (>75% = ++++)
62 (LLDTTQKYL; listed as Homo sapiens) [compound 62]	++++ (>75% = ++++)
63 (SIDDSDPIV; listed as Homo sapiens) [compound 63]	+ (>10% = +)
64 (SLGPIMLTKI; listed as Homo sapiens) [compound 64]	++ (>20% = ++)
65 (TTLGGFAKV; listed as Homo sapiens) [compound 65]	++ (>20% = ++)
66 (VMFEYGMRL; listed as Homo sapiens) [compound 66]	++++ (>75% = ++++)
67 (YVDSEGIVRM; listed as Homo sapiens) [compound 67]	+ (>10% = +)
68 (FLAEAARSL; listed as Homo sapiens) [compound 68]	++++ (>75% = ++++)

Substance	Peptide exchange
69 (IIDDKPIGL; listed as Homo sapiens) [compound 69]	+++ (>50 = +++)
70 (LIDEAAQML; listed as Homo sapiens) [compound 70]	+++ (>50 = +++)
71 (SLDEVAVSL; listed as Homo sapiens) [compound 71]	++++ (>75% = ++++)
72 (TLLEVDAIVNA; listed as Homo sapiens) [compound 72]	++++ (>75% = ++++)
73 (ELDKIYETL; listed as Homo sapiens) [compound 73]	+ (>10% = +)
74 (GTIPLIESL; listed as Homo sapiens) [compound 74]	+ (>10% = +)
75 (FMYAGQLTL; listed as Homo sapiens) [compound 75]	++++ (>75% = ++++)
76 (QIDSIHLLL; listed as Homo sapiens) [compound 76]	+++ (>50 = +++)
77 (SIDDVVKKL; listed as Homo sapiens) [compound 77]	++ (>20% = ++)
78 (ALKDLVNLI; listed as Homo sapiens) [compound 78]	++++ (>75% = ++++)
79 (AVDNILLKL; listed as Homo sapiens) [compound 79]	+++ (>50 = +++)
80 (FADELSHLL; listed as Homo sapiens) [compound 80]	+++ (>50 = +++)
81 (FLDDGNQML; listed as Homo sapiens) [compound 81]	+++ (>50 = +++)
82 (GIDDLHISL; listed as Homo sapiens) [compound 82]	+++ (>50 = +++)
83 (GLDKVITVL; listed as Homo sapiens) [compound 83]	+++ (>50 = +++)
84 (GLDTILQNL; listed as Homo sapiens) [compound 84]	++++ (>75% = ++++)
85 (GLLDVMYQV; listed as Homo sapiens) [compound 85]	++++ (>75% = ++++)
86 (HTLPHEIVVNL; listed as Homo sapiens) [compound 86]	+++ (>50 = +++)
87 (IIDPPLHGQLL; listed as Homo sapiens) [compound 87]	++ (>20% = ++)
88 (ILDGIIREL; listed as Homo sapiens) [compound 88]	+++ (>50 = +++)
89 (ILDNSPAFL; listed as Homo sapiens) [compound 89]	+++ (>50 = +++)
90 (ILDYIHNGL; listed as Homo sapiens) [compound 90]	+++ (>50 = +++)
91 (ILLDRLFSV; listed as Homo sapiens) [compound 91]	++++ (>75% = ++++)
92 (KLPGFPTQDDEV; listed as Homo sapiens) [compound 92]	++ (>20% = ++)
